The record followed here is patent US20160333095A1 (published 2016).

Numbering of substitutions follows the chain as printed.

Sequences and labels used below:
T1: cynomolgus CD3 (UniProt Q95LI5 22-198)
T1 chain: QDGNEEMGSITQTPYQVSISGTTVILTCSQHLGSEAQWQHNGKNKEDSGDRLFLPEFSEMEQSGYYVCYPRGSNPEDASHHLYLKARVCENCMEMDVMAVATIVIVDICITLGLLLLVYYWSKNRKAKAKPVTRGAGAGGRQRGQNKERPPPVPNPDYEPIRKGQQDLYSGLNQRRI

B1: IgG1-CD3-LFLEDA (antibody, V domains shown)
VH: EVKLLESGGGLVQPKGSLKLSCAASGFTFNTYAMNWVRQAPGKGLEWVARIRSKYNNYATYYADSVKDRFTISRDDSQSILYLQMNNLKTEDTAMYYCVRHGNFGNSYVSWFAYWGQGTLVTVSA
VL: QAVVTQESALTTSPGETVTLTCRSSTGAVTTSNYANWVQEKPDHLFTGLIGGTNKRAPGVPARFSGSLIGDKAALTITGAQTEDEAIYFCALWYSNLWVFGGGTKLTVL
B2: bsIgG1 huCD3-H3L1×HER2-LFLEDA (bispecific antibody, V domains shown)
VH 1: B1 VH with L5V, Q13K, K15G, G16R, K19R, Q78K, N87S, A125S
VL 1: not shown
VH 2: QVQLVQSGAEVKKPGASVKVSCKASGYTFTNYGISWVRQAPGQGLEWMGWLSAYSGNTIYAQKLQGRVTMTTDTSTTTAYMELRSLRSDDTAVYYCARDRIVVRPDYFDYWGQGTLVTVSS
VL 2: EIVLTQSPATLSLSPGERATLSCRASQSVSSYLAWYQQKPGQAPRLLIYDASNRATGIPARFSGSGSGTDFTLTISSLEPEDFAVYYCQQRSNWPRTFGQGTKVEIK
B3: IgG1-huCD3-H3L1-LFLEDA (antibody, V domains shown)
VH: B1 VH with L5V, Q13K, K15G, G16R, K19R, Q78K, N87S, A125S
VL: not shown
B4: bsIgG1-huCD3-H3L3×HER2-LFLEDA (bispecific antibody, V domains shown)
VH 1: B1 VH with L5V, Q13K, K15G, G16R, K19R, Q78K, N87S, A125S
VL 1: QAVVTQEPSFSVSPGGTVTLTCRSSTGAVTTSNYANWVQQTPGQAFRGLIGGTNKRAPGVPARFSGSILGNKAALTITGAQADDESDYYCALWYSNLWVFGGGTKLTVL
VH 2: B2 VH 2
VL 2: B2 VL 2
B5: bsIgG1-huCD3-H4L3×HER2-LFLEDA (bispecific antibody, V domains shown)
VH 1: B1 VH with L5V, Q13K, K15G, G16R, K19R, Q78K, N87S, L120M, A125S
VL 1: B4 VL 1
VH 2: B2 VH 2
VL 2: B2 VL 2
B6: bsIgG1-huCD3-H1L3×HER2-LFLEDA (bispecific antibody, V domains shown)
VH 1: B1 VH with L5V, K15G, K19R, Q78K, I80S, A125S
VL 1: B4 VL 1
VH 2: B2 VH 2
VL 2: B2 VL 2
B7: bsIgG1-huCD3-H4L1×HER2-LFLEDA (bispecific antibody, V domains shown)
VH 1: B1 VH with L5V, Q13K, K15G, G16R, K19R, Q78K, N87S, L120M, A125S
VL 1: not shown
VH 2: B2 VH 2
VL 2: B2 VL 2
B8: bsIgG1-huCD3-H1L1×HER2-LFLEDA (bispecific antibody, V domains shown)
VH 1: B1 VH with L5V, K15G, K19R, Q78K, I80S, A125S
VL 1: not shown
VH 2: B2 VH 2
VL 2: B2 VL 2
B9: IgG1-huCD3-H1L3-LFLEDA (antibody, V domains shown)
VH: B1 VH with L5V, K15G, K19R, Q78K, I80S, A125S
VL: B4 VL 1
B10: IgG1-huCD3-H4L1-LFLEDA (antibody, V domains shown)
VH: B1 VH with L5V, Q13K, K15G, G16R, K19R, Q78K, N87S, L120M, A125S
VL: not shown
B11: IgG1-huCD3-H4L3-LFLEDA (antibody, V domains shown)
VH: B1 VH with L5V, Q13K, K15G, G16R, K19R, Q78K, N87S, L120M, A125S
VL: B4 VL 1
B12: IgG1-huCD3-H3L3-LFLEDA (antibody, V domains shown)
VH: B1 VH with L5V, Q13K, K15G, G16R, K19R, Q78K, N87S, A125S
VL: B4 VL 1
B13: bsIgG1 CD3×HER2 (bispecific antibody, V domains shown)
VH 1: B1 VH
VL 1: B1 VL
VH 2: B2 VH 2
VL 2: B2 VL 2
B14: IgG1-huCD3-H1L2 (antibody, V domains shown)
VH: B1 VH with L5V, K15G, K19R, Q78K, I80S, A125S
VL: B4 VL 1 with D87I, Y89F
B15: IgG1-huCD3-H3L3 (antibody, V domains shown)
VH: B1 VH with L5V, Q13K, K15G, G16R, K19R, Q78K, N87S, A125S
VL: B4 VL 1
B16: IgG1-huCD3-H1L3 (antibody, V domains shown)
VH: B1 VH with L5V, K15G, K19R, Q78K, I80S, A125S
VL: B4 VL 1
B17: IgG1-huCD3-H1L1 (antibody, V domains shown)
VH: B1 VH with L5V, K15G, K19R, Q78K, I80S, A125S
VL: not shown
B18: IgG1-huCD3-H4L1 (antibody, V domains shown)
VH: B1 VH with L5V, Q13K, K15G, G16R, K19R, Q78K, N87S, L120M, A125S
VL: not shown
B19: IgG1-huCD3-H1L1-LFLEDA (antibody, V domains shown)
VH: B1 VH with L5V, K15G, K19R, Q78K, I80S, A125S
VL: not shown

The first assay has as its target T1, cynomolgus CD3. Kind of assay: FACS binding, HSC-F cells; Fig 2B.
B1 displayed an EC50 of 0.47 µg/mL.

In the case of B2, the midpoint of the response, the EC50, lay at 3.54 µg/mL.

In the case of B3, the EC50 came out at 0.3 µg/mL.

The target of another assay is T2, human CD3 (UniProt P07766 22-207). Kind of assay: FACS binding, Jurkat cells.
T2 sequence (P07766 22-207): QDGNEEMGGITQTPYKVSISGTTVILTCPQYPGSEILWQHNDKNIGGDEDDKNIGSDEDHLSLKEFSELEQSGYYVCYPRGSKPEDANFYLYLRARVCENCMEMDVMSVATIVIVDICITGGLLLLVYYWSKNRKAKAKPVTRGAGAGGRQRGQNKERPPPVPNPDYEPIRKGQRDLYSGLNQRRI
For B4, the EC50 is 0.74 µg/mL.

B5 showed an EC50 of 0.59 µg/mL.

For B1, the EC50 came to 0.18 µg/mL. Compared with the last molecule, the EC50 is about 3.3-fold lower.

Consider B2, for which the EC50 turned out to be 0.64 µg/mL. Compared with the last molecule, the EC50 is about 3.6-fold higher.

B6 had an EC50 of 0.58 µg/mL.

The molecule B7 registered an EC50 of 0.62 µg/mL.

The target of a further assay is T1, cynomolgus CD3. Kind of assay: FACS binding, HSC-F cells; second row printed H4L1; graph legend indicates H4L3.
Turning to B5, the EC50 is 0.24 µg/mL.

A further assay concerns the target T1, cynomolgus CD3. Kind of assay: FACS binding, HSC-F cells.
B4 came in with an EC50 of 0.26 µg/mL.

Molecule B1 came in with an EC50 of 0.06 µg/mL.

B2 yielded an EC50 of 0.28 µg/mL.

B6 displayed a concentration for a half-maximal effect (EC50) of 0.25 µg/mL.

On to B8, for which the EC50 stood at 0.32 µg/mL.

B7 registered an EC50 of 0.36 µg/mL.

A further assay has as its target T2, human CD3. Kind of assay: FACS binding, Jurkat cells. The source holds these as a separate data set.
On to B1, for which a half-maximal effect (EC50) was put at 0.27 µg/mL.

With B9, a half-maximal effect (EC50) was put at 0.11 µg/mL.

Regarding B10, the EC50 worked out at 0.06 µg/mL.

The molecule B3 came in with an EC50 of 0.1 µg/mL.

B11: it took 0.08 µg/mL to reach a half-maximal effect (EC50). The EC50 values of the last two molecules are within 1.5-fold of each other.

With B12, the EC50 came to 0.08 µg/mL.

A further assay addresses T2, human CD3. Kind of assay: FACS binding, Jurkat cells; Fig 1B.
B1 came in with an EC50 of 0.07 µg/mL.

B13 came in with an EC50 of 0.68 µg/mL.

Regarding B2, it took 0.28 µg/mL to reach a half-maximal effect (EC50).

B3 showed an EC50 of 0.04 µg/mL.

The target of another assay is T1, cynomolgus CD3. Kind of assay: FACS binding, HSC-F cells; Fig 2A.
In turn, B1 had an EC50 of 0.3 µg/mL.

As for B14, a half-maximal response (EC50) required 0.31 µg/mL. This EC50 and that of the molecule before are within 1.5-fold of each other.

On to B3, for which a half-maximal response (EC50) required 0.19 µg/mL. Against the preceding molecule, the EC50 is about 1.6-fold lower.

On to B15, for which the concentration giving a half-maximal response (EC50) stood at 0.11 µg/mL.

Turning to B16, the EC50 stood at 0.28 µg/mL. Against the preceding molecule, the EC50 is about 2.5-fold higher.

In turn, B17 returned an EC50 of 0.37 µg/mL.

B18: the EC50 is 0.26 µg/mL.

The target in another assay is T1, cynomolgus CD3. Kind of assay: FACS binding, HSC-F cells. This is another data set of the same source.
B1 gave an EC50 of 0.06 µg/mL.

B9 registered an EC50 of 0.03 µg/mL.

For B19, a half-maximal response (EC50) required 0.03 µg/mL.

In turn, B10 yielded an EC50 of 0.03 µg/mL.

Turning to B3, the concentration giving a half-maximal response (EC50) turned out to be 0.04 µg/mL.

Turning to B11, the EC50 worked out at 0.02 µg/mL.

B12: the EC50 amounted to 0.03 µg/mL.

In the next assay the target is T2, human CD3. Kind of assay: FACS binding, Jurkat cells; Fig 1A.
B1 showed an EC50 of 0.08 µg/mL.

Molecule B14 displayed an EC50 of 0.08 µg/mL.

The molecule B3 had an EC50 of 0.04 µg/mL. This EC50 is about 2-fold lower than that of the molecule before.

B15: the EC50 stood at 0.02 µg/mL.

B16 yielded an EC50 of 0.06 µg/mL. Compared with the last molecule, the EC50 is about 3-fold higher.

As for B18, the midpoint of the response, the EC50, lay at 0.05 µg/mL.
